Consider nine molecules from CN112390885A (KAIHUI SCIENCE & TECH DEVELOPMENT SHANGHAI CO LTD, dated 2021).

In experiment [1] the target is 人源TROP2, full length, on transfected cells (CHOK1-hTROP2 2B2; 293F-TROP2 6F6) (human) (UniProt P09758). Description: FACS on CHOK1-TROP2 cells.
Experiment [2] concerns the target T1, 人TROP2-his (CAT#10428-H08H-100, Sino biological) (human, UniProt P09758 27-274).
T1 construct: Bought; also called 人TROP2-his抗原; not shown: His tag
T1 sequence (looked up): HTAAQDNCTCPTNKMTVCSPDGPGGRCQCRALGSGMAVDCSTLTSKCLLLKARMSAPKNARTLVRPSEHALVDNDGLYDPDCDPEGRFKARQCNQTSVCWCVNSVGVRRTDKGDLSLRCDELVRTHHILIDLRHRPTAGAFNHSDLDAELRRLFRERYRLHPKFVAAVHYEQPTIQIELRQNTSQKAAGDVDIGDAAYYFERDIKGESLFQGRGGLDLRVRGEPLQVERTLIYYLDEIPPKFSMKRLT
Description: SPR (Biacore), antibody captured by human Fab capture on CM5, human TROP2-his flowed. A general note: SPR reads the build-up and loss of mass on a sensor chip optically.

Experiment [3] concerns the target T2, 人源TROP2, full length, on transfected cells (CHOK1-hTROP2 2B2; 293F-TROP2 6F6) (human, UniProt P09758 27-323).
T2 construct: Full-length human TROP2 expressed from pIRES in CHOK1 or HEK293 cells; the host cell is named under assay; also called CHOk1-TROP2; CHOK-TROP2
T2 sequence: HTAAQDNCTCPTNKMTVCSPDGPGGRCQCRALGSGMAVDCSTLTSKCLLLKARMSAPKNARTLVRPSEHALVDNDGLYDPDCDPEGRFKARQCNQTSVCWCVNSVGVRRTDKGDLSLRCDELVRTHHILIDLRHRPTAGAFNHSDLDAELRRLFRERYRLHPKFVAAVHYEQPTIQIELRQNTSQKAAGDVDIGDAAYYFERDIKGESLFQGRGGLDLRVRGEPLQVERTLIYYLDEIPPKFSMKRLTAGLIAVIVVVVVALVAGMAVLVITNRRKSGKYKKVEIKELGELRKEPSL
Description: FACS on CHOK1-hTROP2 cells.

Experiment [4] deals with T3, 人源TROP2-hFc蛋白 (免疫原A; human TROP2 Thr88-Thr274 with human IgG Fc tag) (human, UniProt P09758 88-274).
T3 construct: also called hTROP2-hFc; 人TROP2-hFc蛋白; not shown: human IgG Fc fragment (hFc) of the pCpC vector
T3 sequence: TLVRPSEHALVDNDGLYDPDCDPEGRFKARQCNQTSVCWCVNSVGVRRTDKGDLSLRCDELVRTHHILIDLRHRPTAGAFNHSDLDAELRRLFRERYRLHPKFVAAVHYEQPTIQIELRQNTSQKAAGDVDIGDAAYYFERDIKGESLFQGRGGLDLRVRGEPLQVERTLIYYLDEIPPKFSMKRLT
Kind of experiment: ELISA, hTROP2-hFc coated at 1.0 μg/mL. In general terms: ELISA stands for enzyme-linked immunosorbent assay.

Experiment [5] deals with T4, 食蟹猴TROP2, full length, on CHOK1 cells (CHOK1-cTROP2 2B2C2) (cynomolgus monkey, UniProt P09758 27-323 (human entry)).
T4 chain: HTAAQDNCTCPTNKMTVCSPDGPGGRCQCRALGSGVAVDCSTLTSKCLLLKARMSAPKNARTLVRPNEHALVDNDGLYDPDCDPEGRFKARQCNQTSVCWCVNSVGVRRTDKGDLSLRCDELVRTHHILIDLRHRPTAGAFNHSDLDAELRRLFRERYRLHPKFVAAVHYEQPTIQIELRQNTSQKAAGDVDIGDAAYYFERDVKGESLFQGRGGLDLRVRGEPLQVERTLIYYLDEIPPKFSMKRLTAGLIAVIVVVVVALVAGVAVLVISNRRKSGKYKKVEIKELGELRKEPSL
Kind of experiment: FACS on CHOK1-cTROP2 cells.

For experiment [6], the target named is T2, 人源TROP2, full length, on transfected …. Kind of experiment: FACS on CHOK1-TROP2 cells (reference antibody).
The target is the same in experiment [7]. Kind of experiment: FACS on CHOK1-TROP2 cells.

B1: 嵌合抗体11E8-3 (heavy chain CDR2 DG→EG) (antibody, human IgG1, V domains shown)
VH: QVQLQQSGAELVRPGSSVKISCKASGVAFSTYWMNWVRQRPGQGLEWIGQIYPGEGDTNSNGKFKGKATLTADKSSSTAYMQFSSLTSEDSAVYFCATRIPDHYGSDWGYFDVWGAGTTV
VL: DIVLTQSPASLAVSLGQRATISCRASKSVSTSGYSYMHWYQQKPGQPPKLLIYLASNLESGVPARFSGSGSGTDFTLNIHPVEEEDAATYYCQHSRELPPTFGGGTKLEIK
With B1, the decrease of maximal MFI against wild-type chimeric 11E8 in experiment [1] was found to be 53%.

B2: 嵌合抗体11E8(DA,NA) (antibody, V domains shown)
VH: QVQLQQSGAELVRPGSSVKISCKASGVAFSTYWMNWVRQRPGQGLEWIGQIYPGDADTNSNAKFKGKATLTADKSSSTAYMQFSSLTSEDSAVYFCATRIPDHYGSDWGYFDVWGAGTTV
VL: DIVLTQSPASLAVSLGQRATISCRASKSVSTSGYSYMHWYQQKPGQPPKLLIYLASNLESGVPARFSGSGSGTDFTLNIHPVEEEDAATYYCQHSRELPPTFGGGTKLEIK
Turning to B2, in experiment [2], the Kd (in general, the constant that tells how readily two partners part at equilibrium) was 10.3 nM; the koff (as a rule, the rate constant with which the complex falls apart) was 0.00107 s⁻¹; the kon – broadly, a measure of how fast the partners come together – was determined as 105000 M⁻¹ s⁻¹.

B3: TROP2抗体 11E8E6D11 (antibody, V domains shown)
VH: QVQLQQSGAELVRPGSSVKISCKASGVAFSTYWMNWVRQRPGQGLEWIGQIYPGDGDTNSNGKFKGKATLTADKSSSTAYMQFSSLTSEDSAVYFCATRIPDHYGSDWGYFDVWGAGTTV
VL: DIVLTQSPASLAVSLGQRATISCRASKSVSTSGYSYMHWYQQKPGQPPKLLIYLASNLESGVPARFSGSGSGTDFTLNIHPVEEEDAATYYCQHSRELPPTFGGGTKLEIK
notes: Mouse hybridoma antibody
For B3, the binding result in experiment [3], in experiment [4] and in experiment [5] was “binds” in each case.

B4: 嵌合抗体11E8-2 (heavy chain CDR2 DG→SG) (antibody, human IgG1, V domains shown)
VH: QVQLQQSGAELVRPGSSVKISCKASGVAFSTYWMNWVRQRPGQGLEWIGQIYPGSGDTNSNGKFKGKATLTADKSSSTAYMQFSSLTSEDSAVYFCATRIPDHYGSDWGYFDVWGAGTTV
VL: DIVLTQSPASLAVSLGQRATISCRASKSVSTSGYSYMHWYQQKPGQPPKLLIYLASNLESGVPARFSGSGSGTDFTLNIHPVEEEDAATYYCQHSRELPPTFGGGTKLEIK
Take B4: the decrease of maximal MFI against wild-type chimeric 11E8 in experiment [1] turned out to be 23%.

B5: 嵌合抗体11E8 (野生型) (antibody, V domains shown)
VH: QVQLQQSGAELVRPGSSVKISCKASGVAFSTYWMNWVRQRPGQGLEWIGQIYPGDGDTNSNGKFKGKATLTADKSSSTAYMQFSSLTSEDSAVYFCATRIPDHYGSDWGYFDVWGAGTTV
VL: DIVLTQSPASLAVSLGQRATISCRASKSVSTSGYSYMHWYQQKPGQPPKLLIYLASNLESGVPARFSGSGSGTDFTLNIHPVEEEDAATYYCQHSRELPPTFGGGTKLEIK
notes: also called 野生型抗体嵌合抗体11E8
B5: the binding result in experiment [6] was “binds”.

B6: 嵌合抗体11E8-1 (heavy chain CDR2 NG→NA) (antibody, human IgG1, V domains shown)
VH: QVQLQQSGAELVRPGSSVKISCKASGVAFSTYWMNWVRQRPGQGLEWIGQIYPGDGDTNSNAKFKGKATLTADKSSSTAYMQFSSLTSEDSAVYFCATRIPDHYGSDWGYFDVWGAGTTV
VL: DIVLTQSPASLAVSLGQRATISCRASKSVSTSGYSYMHWYQQKPGQPPKLLIYLASNLESGVPARFSGSGSGTDFTLNIHPVEEEDAATYYCQHSRELPPTFGGGTKLEIK
notes: Human IgG1/kappa chimera; also called 突变抗体嵌合抗体11E8-1
Turning to B6, the binding result in experiment [7] is listed as “binds”.

B7: 嵌合抗体11E8-4 (heavy chain CDR2 DG→DA) (antibody, human IgG1, V domains shown)
VH: QVQLQQSGAELVRPGSSVKISCKASGVAFSTYWMNWVRQRPGQGLEWIGQIYPGDADTNSNGKFKGKATLTADKSSSTAYMQFSSLTSEDSAVYFCATRIPDHYGSDWGYFDVWGAGTTV
VL: DIVLTQSPASLAVSLGQRATISCRASKSVSTSGYSYMHWYQQKPGQPPKLLIYLASNLESGVPARFSGSGSGTDFTLNIHPVEEEDAATYYCQHSRELPPTFGGGTKLEIK
notes: Human IgG1/kappa chimera; also called 突变体嵌合抗体11E8-4
In the case of B7, the binding result in experiment [7] was “binds”.

B8: hRS7 (antibody, V domains shown)
VH: QVQLQQSGSELKKPGASVKVSCKASGYTFTNYGMNWVKQAPGQGLKWMGWINTYTGEPTYTDDFKGRFAFSLDTSVSTAYLQISSLKADDTAVYFCARGGFGSSYWYFDVWGQGSLVTVSS
VL: DIQLTQSPSSLSASVGDRVSITCKASQDVSIAVAWYQQKPGKAPKLLIYSASYRYTGVPDRFSGSGSGTDFTLTISSLQPEDFAVYYCQQHYITPLTFGAGTKVEIKR
B8: in experiment [2], the Kd was determined as 1.21 nM, the koff came out at 0.000271 s⁻¹ and the kon is 225000 M⁻¹ s⁻¹.

B9: hTINA1-H1L1 (antibody, V domains shown)
VH: QVQLVQSGAEVKKPGASVKVSCKASGYTFTTAGMQWVRQAPGQGLEWMGWINTHSGVPKYAEDFKGRVTISADTSTSTAYLQLSSLKSEDTAVYYCARSGFGSSYWYFDVWGQGTLVTVSS
VL: DIQMTQSPSSLSASVGDRVTITCKASQDVSTAVAWYQQKPGKAPKLLIYSASYRYTGVPSRFSGSGSGTDFTLTISSLQPEDFAVYYCQQHYITPLTFGQGTKLEIKR
For the molecule B9, in experiment [2], the Kd was determined as 20.7 nM, the koff turned out to be 0.00293 s⁻¹ and the kon amounted to 141000 M⁻¹ s⁻¹.
